Measurements published in the DeepSol protein solubility set.

Experiment: soluble on expression in E. coli; label from the status in PepcDB or PDB records

Soluble on expression in E. coli, soluble:
MAGGPPKALPSTGPQSLRDMPHPLAGSSSEEAVGGDSTPSPDLLMARSFGDKDLILPNGGTPAGTASPASSSSLLNRLQLDDDIDGEARDLFVTVDDPKKHVCTMETYITYRITTKSTRVEFDLPEYSVRRRYQDFDWLRNKLEESQPTHLIPPLPEKFVVKGVVDRFSEEFVETRRKALDKFLKRITDHPVLSFNEHFNVFLTAKDLNAYKKQGIALLSRVGESVKHVTGGYKLRSRPLEFAAISDYLDTFALKLGTIDRIAQRIIKEEIEYLVELREYGPVYSTWSALEGELAEPLEGVSACIGNCSTALEELTDDITEEFLPVLREYVLYSDSMKGVLKKRDQVQAEYEAKLEAVALRKEERPKVPADVEKCQDRMECFNADLKADMERWQSNKRHDFRQLLVGLADKNIQYYEKCLMAWESIIPLLQEKQETK
MAHHHHHHMLCGSRATFARTAVAFFNMKHFQTKKKYNLTPQNIYETFSTVLLPRDRLLRQSVSGGGGSRVLVLDAQQRVKGVYLPVFCMPHPSTVTNGSNSLGVAVADYTRSIEATLAMHKAGGGGGTAPTLPTVLVVLSHPQGLAYGTFRADGTPGVPMKNLALAPILANARTQQASTNIASTPLRTSGLGTVMPLLNVSHRHAEVVRDIYTELNECEHVAELAACSTFVWVQRDNMSSMTFEKAQSSERYWERAKNDGDSAAAPPPGAISFLDRRWVLLMDVALHPDTGLGLYARDPATGDRIVNATGVQSALCRGLLLLDHVPRTVANTARAANRETGVSG
MTYLETAAQFYSEVAQTPQVGLCCVQSTPLQLPGLKIPLPMQEMNYGCGTTVHPTELGKQPTVLYVGVGGGLEALQFAYFSRRPGAVIAVEPVAAMREAAARNLEMALTDNPWFDSSFVEIREGDAFNLPVADGSVDIVAQNCLFNIFEPEDLTRALKEAYRVLKPGGRLQMSDPIATSPVPAHLQQDERLRAMCLSGALTYEEYTQRIIDAGFGQIEIRARRPYRLLDSQTYNLETHLLLESLDSVSFKVPMPEDGACIFTGRTAIYAGCDAFFDDKAGHILQRGIPATVCDKTAAKLATVKPKEVIITDSTWHYNGGGCCLEHHHHHH
MSLSDGDYDYLIKFLALGDSGVGKTSVLYQYTDGKFNSKFITTVGIDFREKRVVYRASGPDGATGRGQRIHLQLWDTAGQERFRSLTTAFFRDAMGFLLLFDLTNEQSFLNVRNWISQLQMHAYCENPDIVLCGNKSDLEDQRVVKEEEAIALAEKYGIPYFETSAANGTNISQAIEMLLDLIMKRMERCVDKSWIPEGVVRSNGHASTDQLSEEKEKGACGCEGHHHHHH
MSLTEDLNKRVEQAAQGITPQTKPDERRRYLGSLRERVLVRLNNTEVKDPKLTALFLKHITDFKGYTILINGNITDDGFLGEVEAACSKEDIPFTLVNNETAKTGPEDTAILVVAKTAINHPRVEINQVYPPEMPKTELSAPSKKHESFWHHLFHKDEGHHHHHH
MLSLDSRKIIHHHHHHHHHDIKDGGATTGEWIGQTDHDDSDNHHQHHHHHPWCSDEVLALLRFRSTVENWFPEFTWEHTSRKLAEVGFKRSPQECKEKFEEEERRYFNSNNNNNNNTNDHQHIGNYNNKGNNYRIFSEVEEFYHHGHDNEHVSSEVGDNQNKRTNLVEGKGNVGETVQDLMAEDKLRDQDQGQVEEASMENQRNSIEVGKVGNVEDDAKSSSSSSLMMIMKEKKRKKRKKEKERFGVLKGFCEGLVRNMIAQQEEMHKKLLEDMVKKEEEKIAREEAWKKQEIERVNKEVEIRAQEQAMASDRNTNIIKFISKFTDHDLDVVQNPTSPSQDSSSLALRKTQGRRKFQTSSSLLPQTLTPHNLLTIDKSLEPFSTKTLKPKNQNPKPPKSDDKSDLGKRWPKDEVLALINIRRSISNMNDDDHKDENSLSTSSKAVPLWERISKKMLEIGYKRSAKRCKEKWENINKYFRKTKDVNKKRPLDSRTCPYFHQLTALYSQPPTGTTATTATTATSARDLDTRPEENRVGSQDPDISVPMHVDGDGAGDKSNVQFSGFDLEF
MRQKGHRHGRTVSPCAGCKLLRRKCVKDSCVFAPYFPAKEPYKFAIVHKIFGASNVNKMLQELSENHRSDAVDSMVYEANARIQDPVYGCVGTISSLHRQLETLQTQLAFAQAELIHIRTLHRIHTKPPPYTASTVTFPSNKDFYSDIDMAVAYTDDAGDFLWSC
